Results as given in publication PMC12528321.

T1: AmMIXTA (Antirrhinum majus, UniProt Q38739 1-321)
T1 sequence: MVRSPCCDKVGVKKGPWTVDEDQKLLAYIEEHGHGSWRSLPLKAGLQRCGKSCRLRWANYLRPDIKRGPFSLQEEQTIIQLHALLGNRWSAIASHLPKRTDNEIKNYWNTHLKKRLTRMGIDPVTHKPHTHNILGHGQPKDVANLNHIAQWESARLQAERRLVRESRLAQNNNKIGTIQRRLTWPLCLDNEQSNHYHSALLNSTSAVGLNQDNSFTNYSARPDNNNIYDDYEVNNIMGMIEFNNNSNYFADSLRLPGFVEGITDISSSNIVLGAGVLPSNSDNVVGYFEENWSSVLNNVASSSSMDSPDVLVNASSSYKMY

T2: NtZFP8 (Nicotiana tabacum, UniProt A0A1S4DEM8 1-256)
T2 sequence: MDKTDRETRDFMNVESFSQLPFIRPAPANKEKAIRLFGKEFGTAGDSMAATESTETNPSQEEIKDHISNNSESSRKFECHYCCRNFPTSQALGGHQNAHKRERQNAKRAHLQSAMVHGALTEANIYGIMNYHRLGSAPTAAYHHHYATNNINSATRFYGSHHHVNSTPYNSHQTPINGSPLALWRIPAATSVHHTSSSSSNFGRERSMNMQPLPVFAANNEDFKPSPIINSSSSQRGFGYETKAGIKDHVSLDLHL

B1: MIXTA_EMSA_Probe (dsDNA)
DNA 1: AGACGGATCCATTGCAATAGGTGGTGGTGGATCCTGTAGGAATTCGGA
DNA 2: TCCGAATTCCTACAGGATCCACCACCACCTATTGCAATGGATCCGTCT
B2: ZFP8_EMSA_Probe (dsDNA)
DNA 1: AGACGGATCCATTGCAATAAGAAGAAGAAGATCCTGTAGGAATTCGGA
DNA 2: TCCGAATTCCTACAGGATCTTCTTCTTCTTATTGCAATGGATCCGTCT

Experiments:
AmMIXTA = molecular target: T1, AmMIXTA; assay: EMSA
NtZFP8 = molecular target: T2, NtZFP8; assay: EMSA

| Binder | binding result (AmMIXTA) | binding result (NtZFP8) |
| --- | --- | --- |
| B1 | binds |  |
| B2 |  | binds |
